We go through five molecules from patent publication US20250154277A1 (CONCEPT TO MEDICINE BIOTECH, published 2025).

Values joined by “and” are separate entries in the source; they are usually repeats but may differ in a detail not shown here. Identical values can stand only once. Like-named read-outs stand apart in the source and are kept apart here.

Experiment [1] deals with T1, human 5T4-His protein (human, UniProt Q13641 32-355).
T1 construct: also called recombinant 5T4 protein (human 5T4-his tag); human 5T4 protein; not shown: His tag
T1 sequence (looked up): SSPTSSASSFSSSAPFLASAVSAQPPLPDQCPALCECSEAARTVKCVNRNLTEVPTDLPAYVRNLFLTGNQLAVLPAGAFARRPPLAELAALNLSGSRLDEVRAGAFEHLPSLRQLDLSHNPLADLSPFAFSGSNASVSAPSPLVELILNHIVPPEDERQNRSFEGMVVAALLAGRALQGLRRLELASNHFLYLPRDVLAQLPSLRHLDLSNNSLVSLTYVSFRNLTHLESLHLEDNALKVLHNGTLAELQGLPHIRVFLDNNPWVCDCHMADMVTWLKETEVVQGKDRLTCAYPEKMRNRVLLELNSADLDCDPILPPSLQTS
The experiment in a line: ELISA, coated antigen. For orientation: ELISA stands for enzyme-linked immunosorbent assay.

Another experiment concerns the target T2, cynomolgus 5T4 protein (cynomolgus monkey, UniProt Q4R8Y9 35-355, limits assumed).
T2 construct: Coated protein in ELISA; the screening step names a cyno 5T4-His protein; also called cyno 5T4; recombinant cyno 5T4-His protein
T2 sequence (looked up): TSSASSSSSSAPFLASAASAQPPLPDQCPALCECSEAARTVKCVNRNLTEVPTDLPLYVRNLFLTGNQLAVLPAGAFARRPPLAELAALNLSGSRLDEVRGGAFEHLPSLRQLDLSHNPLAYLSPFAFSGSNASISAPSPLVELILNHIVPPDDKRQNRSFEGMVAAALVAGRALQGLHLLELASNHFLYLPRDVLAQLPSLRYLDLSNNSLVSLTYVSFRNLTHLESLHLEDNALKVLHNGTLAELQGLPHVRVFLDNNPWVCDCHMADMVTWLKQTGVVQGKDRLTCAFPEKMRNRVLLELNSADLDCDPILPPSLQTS
The experiment in a line: ELISA, coated antigen.

Experiment [2] has as its target T1, human 5T4-His protein. Put plainly: SPR Biacore, Protein A capture. On the procedure:
The binding of the chimeric mAbs from these clones against recombinant 5T4 protein (human 5T4-his tag) was tested with Biacore using a capture method. The mAbs were captured using Protein A chip. A serial dilution of human 5T4-his tag protein was injected over captured antibody for 2-3 mins at a flow rate of 30 μl/min. The antigen was allowed to dissociate for 360-1000 s. All the experiments were carried out on a Biacore T200. Data analysis was carried out using Biacore T200 evaluation software.
Background: SPR reads the build-up and loss of mass on a sensor chip optically.

For experiment [3], the target named is T1, human 5T4-His protein. The experiment in a line: SPR Biacore, Protein A capture. The method in brief: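 Humanized 14G12 antibodies captured on a Protein A chip; serial dilutions of human 5T4-His injected for 120 s-180 s at 30 μl/min, with dissociation over 360 s-1000 s on a Biacore T200.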
This is another data set of the same source.

The target in experiment [4] is T1, human 5T4-His protein. The experiment in a line: competitive ELISA, coated human 5T4, vs naptumomab-biotin.
In experiment [5] the target is T1, human 5T4-His protein. The experiment in a line: ELISA, coated 5T4-His. On the procedure:
To evaluate the binding activity of 393E9 humanized antibodies to human 5T4, the 393E9 chimeric antibody (393E9-C) along with 393E9 humanized mAbs were subjected to ELISA test.
Briefly, microtiter plates were coated with human 5T4-His protein at 1 μg/ml in PBS, 100 μl/well at 4° C. overnight, then blocked with 150 μl/well of 1% BSA. 4-fold dilutions of antibodies starting from 20 nM were added to each well and incubated for 1 hour at 37° C. The plates were washed with PBS/Tween and then incubated with Goat Anti-Human IgG-HRP for 30 mins at 37° C. After washing, the plates were developed with TMB substrate and analyzed by spectrophotometer at OD 450 nm. As shown in FIG. 12 and Table 9, most of the humanized antibodies bound to human 5T4 with high activity.

Experiment [6] addresses T3, human 5T4 expressed on cells (human, UniProt Q13641 32-420).
T3 construct: whole, on cells; also called CHOK1-hu5T4; CHO-K1-expressing human 5T4
T3 sequence (looked up): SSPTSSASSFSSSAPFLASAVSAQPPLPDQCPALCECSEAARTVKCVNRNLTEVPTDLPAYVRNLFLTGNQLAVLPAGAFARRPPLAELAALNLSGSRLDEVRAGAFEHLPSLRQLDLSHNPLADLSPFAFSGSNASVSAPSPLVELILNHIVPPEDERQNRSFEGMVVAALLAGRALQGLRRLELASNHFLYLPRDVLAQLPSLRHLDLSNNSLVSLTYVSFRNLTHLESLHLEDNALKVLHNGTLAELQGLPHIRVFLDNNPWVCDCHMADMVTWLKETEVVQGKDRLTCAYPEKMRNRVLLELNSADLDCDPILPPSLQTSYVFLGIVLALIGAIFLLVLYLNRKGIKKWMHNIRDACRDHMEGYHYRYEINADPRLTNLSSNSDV
Put plainly: flow cytometry, CHOK1-hu5T4 cells. (In general: In flow cytometry, cells or beads pass a laser one at a time.)

In experiment [7] the target is T1, human 5T4-His protein. The experiment in a line: SPR Biacore, Protein A capture. On the procedure:
The binding of the 393E9 humanized antibodies to recombinant 5T4 protein (human 5T4-his tag) was tested with Biacore using a capture method. The mAbs were captured using Protein A chip. A serial dilution of human 5T4-his tag protein was injected over captured antibody for 3 mins at a flow rate of 30 μl/min. The antigen was allowed to dissociate for 280-800 s. All the experiments were carried out on a Biacore T200. Data analysis was carried out using the Biacore T200 evaluation software.
This is another data set of the same source.

Experiment [8] concerns the target T1, human 5T4-His protein. The experiment in a line: competitive ELISA, coated human 5T4, vs naptumomab-biotin. The source holds these as a separate data set.
In experiment [9] the target is T1, human 5T4-His protein. The experiment is described as above. This is another data set of the same source.
Experiment [10] has as its target T1, human 5T4-His protein. Put plainly: ELISA, coated 5T4-His. The method, boiled down:
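Plates coated overnight at 4° C with 1 μg/ml 5T4-His, blocked with 1% BSA. Antibodies in 4-fold dilutions from 20 nM, 1 h at 37° C; bound antibody detected with anti-human IgG-HRP (30 min, 37° C), TMB development, OD 450 nm.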
This is another data set of the same source.

Experiment [11] addresses T1, human 5T4-His protein. Put plainly: SPR Biacore, Protein A capture. The source holds these as a separate data set.
Experiment [12] has as its target T1, human 5T4-His protein. The experiment in a line: ELISA, coated human 5T4. As to the method: To evaluate the binding activity of clones, the 286B4 chimeric antibody along with 286B4 humanized mAbs were subjected to ELISA test.
Briefly, microtiter plates were coated with human 5T4-His protein at 1 μg/ml in PBS, 100 μl/well at 4° C. overnight, then blocked with 150 μl/well of 1% BSA. 4-fold dilutions of tested antibodies starting from 20 nM were added to each well and incubated for 1 hour at 37° C. The plates were washed with PBS/Tween and then incubated with Goat Anti-Human IgG-HRP for 30 mins at 37° C. After washing, the plates were developed with TMB substrate and analyzed by spectrophotometer at OD 450 nm. As shown in FIG. 16 and Table 15, most of the humanized clones bound to human 5T4 with high potency.

For experiment [13], the target named is T1, human 5T4-His protein. Put plainly: competitive ELISA, coated human 5T4, vs 159D5-biotin.

B1: 14G12 chimeric antibody (antibody, V domains shown)
VH: EVQLQQSGPELVKPGASVKISCKASGYAFSSSWMNWVKQRPGKGLEWIGRIYREDGHTNYNGKFKGKATLTADKSSTTAYMQLTSLTSEDSAVYFCANGGAMDYWGQGTSVTVSS
VL: DIQMTQSTSSLSASLGDRVTISCRASQDISNYLNWYQQKPDGTVKLLIYYTSRLHSGVPSRFSGSGSGTDYSLTISNLEQEDIATYFCQQDNTLPWTFGGGTKLEIK
notes: chimeric mAb
Usually EC50 stands for the concentration giving half of the maximal effect. Read a high EC50 as lower potency in that assay. The Kd is the equilibrium constant for the complex coming apart. A high value points to a looser complex. In general, koff refers to the rate constant with which the complex falls apart. Read a low koff as slow dissociation. For orientation: kon means the second-order rate constant of association. On to B1, for which the EC50 in the experiment with human 5T4-His protein [1] is 0.19 nM. It took 0.17 nM to reach a half-maximal effect with cynomolgus 5T4 protein (EC50). In the experiment with human 5T4-His protein [2], this molecule came in with a Kd of 0.413 nM, a koff of 0.000222 s⁻¹ and a kon of 538000 M⁻¹ s⁻¹. Moreover, in the experiment with human 5T4-His protein [3], the Kd is 0.839 nM and 0.537 nM; the koff was 0.000336 s⁻¹ and 0.00033 s⁻¹; the kon is 401000 M⁻¹ s⁻¹ and 615000 M⁻¹ s⁻¹. Further, in the experiment with human 5T4-His protein [4], the “IC50 (read off the curve)” value was about 4 nM.

B2: 393E9 chimeric antibody (antibody, V domains shown)
VH: EVKLVESGGGLVQPGGSLSLSCAASGFTFTDYYMSWVRQPPGKALEWLGFIRNKGNGYTTENSASVKGRFTISRDNSQSILYLQMNALRAEDSATYYCARYRGNPHYAMDYWGQGTSVTVSS
VL: DIVLTQFPASLAVSLGQRATISCRASESVEFYGTSFLQWYQQKPGQPPKLLIYGASNVESGVPARFSGSGSGTDFSLSIHPVEEDDIAMYFCQQSRKVPSTFGGGTKLEIK
notes: chimeric mAb
The term EC50 (read off the curve) denotes the concentration that produces a half-maximal response. Low readings indicate higher potency in that assay, high ones lower potency in that assay. Take B2: the EC50 with human 5T4-His protein [1] was 0.37 nM; with cynomolgus 5T4 protein, 0.14 nM; in the experiment with human 5T4-His protein [5], 0.27 nM and 0.13 nM and 0.23 nM. The molecule further had an EC50 (read off the curve) in experiment [6] of 5 nM. Moreover, the values for the Kd with human 5T4-His protein [2] and with human 5T4-His protein [7] were 0.0565 nM and 0.463 nM, respectively. Also, the koff with human 5T4-His protein [2] is 0.000183 s⁻¹; with human 5T4-His protein [7], 0.000107 s⁻¹. The results for the kon with human 5T4-His protein [2] and with human 5T4-His protein [7] were 3.24e+06 M⁻¹ s⁻¹ and 231000 M⁻¹ s⁻¹, respectively. Moreover, the “IC50 (read off the curve)” value with human 5T4-His protein [8] was about 5 nM.

B3: 113H5 chimeric antibody (antibody, V domains shown)
VH: DVQLQESGPGLVKPSQSLSLTCSVTGYSITSGYYWNWIRQFPGNKLEWMGYINSDGSNNYNPSLKNRISITRDTSKNQFFLKLNSVTTEDTATYYCAREEYDYWFAYWGQGTLVTVSA
VL: DIVMTQSQKFMSTSVGDRVSVTCKASQNVGTNVAWYQQKPGQSPKALIYSASNRYSGVPDRFTGSGFGTDFTLTISNVQSEDLTEYFCQQYNSYPYTFGGGTNLEIK
notes: chimeric mAb
In the experiment with human 5T4-His protein [1], B3 came in with an EC50 of 0.52 nM. In the experiment with cynomolgus 5T4 protein, this molecule had an EC50 of 0.82 nM. Moreover, in the experiment with human 5T4-His protein [2], the Kd was found to be 0.552 nM, the koff is 0.000192 s⁻¹ and the on-rate constant (kon) stood at 348000 M⁻¹ s⁻¹. In the experiment with human 5T4-His protein [9], the “IC50 (read off the curve)” value was about 6 nM.

B4: Hu286B4-10 (antibody, V domains shown)
VH: EVQLQESGPGLVKPSDTLSLTCAVSGYSISNNYYWNWIRQPPGKGLEWIGYITYDGSNNYNPSLKNRITMSRDTSKNQFSLKLSSVTAVDTAVYYCARGGGQLRFDYWGQGTTVTVSS
VL: SIVMTQSPSSLSASVGDRVTITCKASQSVSNEVTWYQQKPGKSPKMLIYYASNRYTGVPDRFSGSGYGTDFTFTISSLQPEDIATYFCQQDYSSPWTFGGGTKVEIK
notes: humanized
The molecule B4 registered an EC50 in the experiment with human 5T4-His protein [10] of 2.61 nM. In the experiment with human 5T4-His protein [11], the equilibrium dissociation constant (Kd) was determined as 1.93 nM, the koff came to 0.000204 s⁻¹ and the kon turned out to be 106000 M⁻¹ s⁻¹. Further, in the experiment with human 5T4-His protein [12], the “EC50 (read off the curve)” value is about 0.08 nM.

B5: 24F10 chimeric antibody (antibody, V domains shown)
VH: EVQLVESGGGLVKPGGSLKLSCAASGFTFSDYGMHWVRQAPEKGLEWVAYISSGTSTIYYTDTVKGRFTISRDNAKNTLFLQMTSLRSEDTAMYYCARGGDGYYRSTMDYWGQGISVTVSS
VL: DIVLTQSPASLAVSLGQRATISCRASQSVSSSSYSYMHWYQQKPGQPPKLLIKSASNLASGVPARFSGSGSGTDFTLNIHPVEEEDSATYYCQHSWEVPRTFGGGTKLEIK
notes: chimeric mAb
For the molecule B5, in the experiment with human 5T4-His protein [1], the EC50 came to 0.18 nM. In addition, a half-maximal effect in the experiment with cynomolgus 5T4 protein (EC50) was put at 0.21 nM. Besides, in the experiment with human 5T4-His protein [2], binding was characterised by a dissociation constant (Kd) of 0.302 nM, the koff was found to be 0.000126 s⁻¹ and the kon was 418000 M⁻¹ s⁻¹. Further, the “IC50 (read off the curve)” value with human 5T4-His protein [13] was about 9 nM.
